{
  "source": "patent US20220162583",
  "assay_in_all_cases": "cell_activity",
  "key": {"[1]": {"test_system": "nd4 mito-nickase (1) left TALE-FokI", "details": "zebrafish embryos; both nd4 nickase pairs co-injected"}, "[2]": {"test_system": "nd4 mito-nickase (2) left TALE-FokI", "details": "zebrafish embryos; both nd4 nickase pairs co-injected"}, "[3]": {"test_system": "nd5 mito-nickase right TALE-FokI", "details": "nearly 30%; with atp8 nickase"}, "[4]": {"test_system": "nd4 mitoTALE nuclease left", "details": "with nd5 and atp8 nickases; deletions also with nuclease alone"}, "[5]": {"test_system": "nd4 mito-nickase (2) right TALE-FokI", "details": "zebrafish embryos; both nd4 nickase pairs co-injected"}, "[6]": {"test_system": "nd5 mito-nickase left TALE-FokI", "details": "nearly 30%; with atp8 nickase"}, "[7]": {"test_system": "atp8 mito-nickase left TALE-FokI", "details": "nearly 30%; with nd5 nickase"}, "[8]": {"test_system": "nd4 mitoTALE nuclease right", "details": "with nd5 and atp8 nickases; deletions also with nuclease alone"}, "[9]": {"test_system": "atp8 mito-nickase right TALE-FokI", "details": "nearly 30%; with nd5 nickase"}, "[10]": {"test_system": "nd4 mito-nickase (1) right TALE-FokI", "details": "zebrafish embryos; both nd4 nickase pairs co-injected"}},
  "data": [
    {"sequence": "AAGTTCTGGTTTTAA (double strand) [nd4 nickase (1) left site]", "values": [
      {"measurement": "activity (% embryos with deletion)", "setting": "[1]", "value": 50}
    ]},
    {"sequence": "ACGAGTTAGAAGCAT (double strand) [nd4 nickase (2) left site]", "values": [
      {"measurement": "activity (% embryos with deletion)", "setting": "[2]", "value": 50}
    ]},
    {"sequence": "AGGGCTAATGATAGT (double strand) [nd5 nickase right site]", "values": [
      {"measurement": "activity (% embryos with deletion)", "setting": "[3]", "value": 30}
    ]},
    {"sequence": "CGGGTAATAATGATT (double strand) [nd4 nuclease left site]", "values": [
      {"measurement": "activity (% embryos with deletion)", "setting": "[4]", "value": "> 90"}
    ]},
    {"sequence": "GACTAAAATGAACCT (double strand) [nd4 nickase (2) right site]", "values": [
      {"measurement": "activity (% embryos with deletion)", "setting": "[5]", "value": 50}
    ]},
    {"sequence": "GCTAGATGTGGTTGG (double strand) [nd5 nickase left site]", "values": [
      {"measurement": "activity (% embryos with deletion)", "setting": "[6]", "value": 30}
    ]},
    {"sequence": "TAGGTTGAATGTGAT (double strand) [atp8 nickase left site]", "values": [
      {"measurement": "activity (% embryos with deletion)", "setting": "[7]", "value": 30}
    ]},
    {"sequence": "TATATTCGAAGCTAC (double strand) [nd4 nuclease right site]", "values": [
      {"measurement": "activity (% embryos with deletion)", "setting": "[8]", "value": "> 90"}
    ]},
    {"sequence": "TCCTTACTATTATTC (double strand) [atp8 nickase right site]", "values": [
      {"measurement": "activity (% embryos with deletion)", "setting": "[9]", "value": 30}
    ]},
    {"sequence": "TTACACCTAATTCCT (double strand) [nd4 nickase (1) right site]", "values": [
      {"measurement": "activity (% embryos with deletion)", "setting": "[10]", "value": 50}
    ]}
  ]
}
